Among the data in article PMC3909490 are Kd values, retold here.

The experiment concerns the target FITC-casein (UniProt P02662). Briefly: fluorescence polarisation. (Polarisation of emitted light reports the rotation of a fluorescent probe.)
UniProt P02662, sequence (P02662 16-214): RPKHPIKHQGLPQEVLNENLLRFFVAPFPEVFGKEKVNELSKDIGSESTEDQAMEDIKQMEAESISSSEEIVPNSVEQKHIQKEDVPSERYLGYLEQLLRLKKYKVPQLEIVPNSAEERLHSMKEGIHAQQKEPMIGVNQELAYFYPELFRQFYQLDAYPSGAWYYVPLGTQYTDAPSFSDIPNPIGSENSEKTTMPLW

In turn, “Hsp104^A503V (from UniProt P31539 1-908) (natural protein)” registered a dissociation constant Kd of 80 nM. With “Hsp104^WT (from UniProt P31539 1-908) (natural protein)” the figure was 65 nM.

For orientation: Kd means the concentration at which binding is half-saturated. Read a high Kd as a looser complex.
